The labels stand for the following.
B8: KaiC-S431E-T432A (natural protein, Synechococcus elongatus)
chain: MTSAEMTSPNNNSEHQAIAKMRTMIEGFDDISHGGLPIGRSTLVSGTSGTGKTLFSIQFLYNGIIEFDEPGVFVTFEETPQDIIKNARSFGWDLAKLVDEGKLFILDASPDPEGQEVVGGFDLSALIERINYAIQKYRARRVSIDSVTSVFQQYDASSVVRRELFRLVARLKQIGATTVMTTERIEEYGPIARYGVEEFVSDNVVILRNVLEGERRRRTLEILKLRGTSHMKGEYPFTITDHGINIFPLGAMRLTQRSSNVRVSSGVVRLDEMCGGGFFKDSIILATGATGTGKTLLVSRFVENACANKERAILFAYEESRAQLLRNAYSWGMDFEEMERQNLLKIVCAYPESAGLEDHLQIIKSEINDFKPARIAIDSLSALARGVSNNAFRQFVIGVTGYAKQEEITGLFTNTSDQFMGAHSITDSHIEAITDTIILLQYVEIRGEMSRAINVFKMRGSWHDKAIREFMISDKGPDIKDSFRNFERIISGSPTRITVDEKSELSRIVRGVQEKGPES

The target in data set [1] is fluorescently labeled KaiB (Synechococcus elongatus) (UniProt Q79PF5). In words: fluorescence polarisation. A general note: Polarisation of emitted light reports the rotation of a fluorescent probe.
The data set “cryo-EM structure” deals with the molecule itself. In words: cryo-EM structure.
The data set “KaiC-S431E-T432A” concerns the target B8. Description: fluorescence polarisation.

The results in this text go back to publication PMC9495280 (Nature structural & molecular biology, 2022).

B1: KaiC-EA K224A (natural protein)
chain: MTSAEMTSPNNNSEHQAIAKMRTMIEGFDDISHGGLPIGRSTLVSGTSGTGKTLFSIQFLYNGIIEFDEPGVFVTFEETPQDIIKNARSFGWDLAKLVDEGKLFILDASPDPEGQEVVGGFDLSALIERINYAIQKYRARRVSIDSVTSVFQQYDASSVVRRELFRLVARLKQIGATTVMTTERIEEYGPIARYGVEEFVSDNVVILRNVLEGERRRRTLEILALRGTSHMKGEYPFTITDHGINIFPLGAMRLTQRSSNVRVSSGVVRLDEMCGGGFFKDSIILATGATGTGKTLLVSRFVENACANKERAILFAYEESRAQLLRNAYSWGMDFEEMERQNLLKIVCAYPESAGLEDHLQIIKSEINDFKPARIAIDSLSALARGVSNNAFRQFVIGVTGYAKQEEITGLFTNTSDQFMGAHSITDSHIEAITDTIILLQYVEIRGEMSRAINVFKMRGSWHDKAIREFMISDKGPDIKDSFRNFERIISGSPTRITVDEKSELSRIVRGVQEKGPES
As a reminder, the Kd is a measure of binding affinity in units of concentration. Lower therefore signals tighter binding. As for B1, the dissociation constant Kd in data set [1] stood at 4.6 µM. That is a single-digit micromolar value.

B2: nighttime KaiC H230A (natural protein)
chain: MTSAEMTSPNNNSEHQAIAKMRTMIEGFDDISHGGLPIGRSTLVSGTSGTGKTLFSIQFLYNGIIEFDEPGVFVTFEETPQDIIKNARSFGWDLAKLVDEGKLFILDASPDPEGQEVVGGFDLSALIERINYAIQKYRARRVSIDSVTSVFQQYDASSVVRRELFRLVARLKQIGATTVMTTERIEEYGPIARYGVEEFVSDNVVILRNVLEGERRRRTLEILKLRGTSAMKGEYPFTITDHGINIFPLGAMRLTQRSSNVRVSSGVVRLDEMCGGGFFKDSIILATGATGTGKTLLVSRFVENACANKERAILFAYEESRAQLLRNAYSWGMDFEEMERQNLLKIVCAYPESAGLEDHLQIIKSEINDFKPARIAIDSLSALARGVSNNAFRQFVIGVTGYAKQEEITGLFTNTSDQFMGAHSITDSHIEAITDTIILLQYVEIRGEMSRAINVFKMRGSWHDKAIREFMISDKGPDIKDSFRNFERIISGSPTRITVDEKSELSRIVRGVQEKGPES
On to B2, for which the dissociation constant Kd in data set [1] was 5.9 µM. This Kd and that of the molecule before are within 1.5-fold of each other.

B3: nighttime KaiC-K457A (natural protein)
chain: MTSAEMTSPNNNSEHQAIAKMRTMIEGFDDISHGGLPIGRSTLVSGTSGTGKTLFSIQFLYNGIIEFDEPGVFVTFEETPQDIIKNARSFGWDLAKLVDEGKLFILDASPDPEGQEVVGGFDLSALIERINYAIQKYRARRVSIDSVTSVFQQYDASSVVRRELFRLVARLKQIGATTVMTTERIEEYGPIARYGVEEFVSDNVVILRNVLEGERRRRTLEILKLRGTSHMKGEYPFTITDHGINIFPLGAMRLTQRSSNVRVSSGVVRLDEMCGGGFFKDSIILATGATGTGKTLLVSRFVENACANKERAILFAYEESRAQLLRNAYSWGMDFEEMERQNLLKIVCAYPESAGLEDHLQIIKSEINDFKPARIAIDSLSALARGVSNNAFRQFVIGVTGYAKQEEITGLFTNTSDQFMGAHSITDSHIEAITDTIILLQYVEIRGEMSRAINVFAMRGSWHDKAIREFMISDKGPDIKDSFRNFERIISGSPTRITVDEKSELSRIVRGVQEKGPES
Molecule B3 gave a Kd in data set [1] of 4.6 µM.

B4: nighttime KaiC R226A (natural protein)
chain: MTSAEMTSPNNNSEHQAIAKMRTMIEGFDDISHGGLPIGRSTLVSGTSGTGKTLFSIQFLYNGIIEFDEPGVFVTFEETPQDIIKNARSFGWDLAKLVDEGKLFILDASPDPEGQEVVGGFDLSALIERINYAIQKYRARRVSIDSVTSVFQQYDASSVVRRELFRLVARLKQIGATTVMTTERIEEYGPIARYGVEEFVSDNVVILRNVLEGERRRRTLEILKLAGTSHMKGEYPFTITDHGINIFPLGAMRLTQRSSNVRVSSGVVRLDEMCGGGFFKDSIILATGATGTGKTLLVSRFVENACANKERAILFAYEESRAQLLRNAYSWGMDFEEMERQNLLKIVCAYPESAGLEDHLQIIKSEINDFKPARIAIDSLSALARGVSNNAFRQFVIGVTGYAKQEEITGLFTNTSDQFMGAHSITDSHIEAITDTIILLQYVEIRGEMSRAINVFKMRGSWHDKAIREFMISDKGPDIKDSFRNFERIISGSPTRITVDEKSELSRIVRGVQEKGPES
With B4, in data set [1], the dissociation constant (Kd) was > 38 µM.

B5: daytime KaiC-K457A (natural protein)
chain: MTSAEMTSPNNNSEHQAIAKMRTMIEGFDDISHGGLPIGRSTLVSGTSGTGKTLFSIQFLYNGIIEFDEPGVFVTFEETPQDIIKNARSFGWDLAKLVDEGKLFILDASPDPEGQEVVGGFDLSALIERINYAIQKYRARRVSIDSVTSVFQQYDASSVVRRELFRLVARLKQIGATTVMTTERIEEYGPIARYGVEEFVSDNVVILRNVLEGERRRRTLEILKLRGTSHMKGEYPFTITDHGINIFPLGAMRLTQRSSNVRVSSGVVRLDEMCGGGFFKDSIILATGATGTGKTLLVSRFVENACANKERAILFAYEESRAQLLRNAYSWGMDFEEMERQNLLKIVCAYPESAGLEDHLQIIKSEINDFKPARIAIDSLSALARGVSNNAFRQFVIGVTGYAKQEEITGLFTNTSDQFMGAHSITDSHIAEITDTIILLQYVEIRGEMSRAINVFAMRGSWHDKAIREFMISDKGPDIKDSFRNFERIISGSPTRITVDEKSELSRIVRGVQEKGPES
On to B5, for which the Kd in data set [1] came out at 7.3 µM.

B6: nighttime KaiC I430G (natural protein)
chain: MTSAEMTSPNNNSEHQAIAKMRTMIEGFDDISHGGLPIGRSTLVSGTSGTGKTLFSIQFLYNGIIEFDEPGVFVTFEETPQDIIKNARSFGWDLAKLVDEGKLFILDASPDPEGQEVVGGFDLSALIERINYAIQKYRARRVSIDSVTSVFQQYDASSVVRRELFRLVARLKQIGATTVMTTERIEEYGPIARYGVEEFVSDNVVILRNVLEGERRRRTLEILKLRGTSHMKGEYPFTITDHGINIFPLGAMRLTQRSSNVRVSSGVVRLDEMCGGGFFKDSIILATGATGTGKTLLVSRFVENACANKERAILFAYEESRAQLLRNAYSWGMDFEEMERQNLLKIVCAYPESAGLEDHLQIIKSEINDFKPARIAIDSLSALARGVSNNAFRQFVIGVTGYAKQEEITGLFTNTSDQFMGAHSITDSHGEAITDTIILLQYVEIRGEMSRAINVFKMRGSWHDKAIREFMISDKGPDIKDSFRNFERIISGSPTRITVDEKSELSRIVRGVQEKGPES
In the case of B6, the dissociation constant Kd in data set [1] is > 25 µM.

B7: nighttime KaiC R217A (natural protein)
chain: MTSAEMTSPNNNSEHQAIAKMRTMIEGFDDISHGGLPIGRSTLVSGTSGTGKTLFSIQFLYNGIIEFDEPGVFVTFEETPQDIIKNARSFGWDLAKLVDEGKLFILDASPDPEGQEVVGGFDLSALIERINYAIQKYRARRVSIDSVTSVFQQYDASSVVRRELFRLVARLKQIGATTVMTTERIEEYGPIARYGVEEFVSDNVVILRNVLEGERRARTLEILKLRGTSHMKGEYPFTITDHGINIFPLGAMRLTQRSSNVRVSSGVVRLDEMCGGGFFKDSIILATGATGTGKTLLVSRFVENACANKERAILFAYEESRAQLLRNAYSWGMDFEEMERQNLLKIVCAYPESAGLEDHLQIIKSEINDFKPARIAIDSLSALARGVSNNAFRQFVIGVTGYAKQEEITGLFTNTSDQFMGAHSITDSHIEAITDTIILLQYVEIRGEMSRAINVFKMRGSWHDKAIREFMISDKGPDIKDSFRNFERIISGSPTRITVDEKSELSRIVRGVQEKGPES
In the case of B7, in data set [1], the KaiB cooperativity index (fsKaiB as secondary titrant) is 1.6 and the Kd was > 13 µM.
In general, stoichiometry N refers to the number of molecules, sites or subunits per partner or assembly. For the molecule B8, the “stoichiometry N” value in “cryo-EM structure” turned out to be 6.

B9: nighttime KaiC R216A (natural protein)
chain: MTSAEMTSPNNNSEHQAIAKMRTMIEGFDDISHGGLPIGRSTLVSGTSGTGKTLFSIQFLYNGIIEFDEPGVFVTFEETPQDIIKNARSFGWDLAKLVDEGKLFILDASPDPEGQEVVGGFDLSALIERINYAIQKYRARRVSIDSVTSVFQQYDASSVVRRELFRLVARLKQIGATTVMTTERIEEYGPIARYGVEEFVSDNVVILRNVLEGERARRTLEILKLRGTSHMKGEYPFTITDHGINIFPLGAMRLTQRSSNVRVSSGVVRLDEMCGGGFFKDSIILATGATGTGKTLLVSRFVENACANKERAILFAYEESRAQLLRNAYSWGMDFEEMERQNLLKIVCAYPESAGLEDHLQIIKSEINDFKPARIAIDSLSALARGVSNNAFRQFVIGVTGYAKQEEITGLFTNTSDQFMGAHSITDSHIEAITDTIILLQYVEIRGEMSRAINVFKMRGSWHDKAIREFMISDKGPDIKDSFRNFERIISGSPTRITVDEKSELSRIVRGVQEKGPES
On to B9, for which, in data set [1], the Kd was > 25 µM.

B10: KaiB-I87A (natural protein, Synechococcus elongatus, UniProt Q79PF5 1-102, looked up)
chain: MSPRKTYILKLYVAGNTPNSVRALKTLKNILEVEFQGVYALKVIDVLKNPQLAEEDKILATPTLAKVLPLPVRRIIGDLSDREKVLAGLDLLYGELQDSDDF
Regarding B10, the binding result in the data set with KaiC-S431E-T432A is on record as “binds”.
